This series concerns DosR (His6-DosR, pre-phosphorylated with acetyl phosphate) (Mycobacterium tuberculosis). The series can be described thus: EMSA. In general terms: Mobility shift assays separate free from complexed probe on a gel.

In the case of hspX promoter probe, the binding signal (fold inhibition of binding vs DMSO) was determined as 22.
